We go through two substances from patent publication US20130243722A1.

Holding throughout (assay): cell-based or functional assay
Experiment [1] addresses murine IL-12 receptor on mouse CD14- PBMC (mouse) (UniProt P97378).
The target in experiment [2] is rat IL-12 receptor on rat PBMC (rat).
In experiment [3] the target is rhesus monkey IL-12 receptor on rhesus monkey CD14- PBMC (rhesus monkey) (UniProt F6X0C8).
rhesus monkey IL-12 receptor on rhesus monkey CD14- PBMC (rhesus monkey), sequence (F6X0C8 entry or part of it): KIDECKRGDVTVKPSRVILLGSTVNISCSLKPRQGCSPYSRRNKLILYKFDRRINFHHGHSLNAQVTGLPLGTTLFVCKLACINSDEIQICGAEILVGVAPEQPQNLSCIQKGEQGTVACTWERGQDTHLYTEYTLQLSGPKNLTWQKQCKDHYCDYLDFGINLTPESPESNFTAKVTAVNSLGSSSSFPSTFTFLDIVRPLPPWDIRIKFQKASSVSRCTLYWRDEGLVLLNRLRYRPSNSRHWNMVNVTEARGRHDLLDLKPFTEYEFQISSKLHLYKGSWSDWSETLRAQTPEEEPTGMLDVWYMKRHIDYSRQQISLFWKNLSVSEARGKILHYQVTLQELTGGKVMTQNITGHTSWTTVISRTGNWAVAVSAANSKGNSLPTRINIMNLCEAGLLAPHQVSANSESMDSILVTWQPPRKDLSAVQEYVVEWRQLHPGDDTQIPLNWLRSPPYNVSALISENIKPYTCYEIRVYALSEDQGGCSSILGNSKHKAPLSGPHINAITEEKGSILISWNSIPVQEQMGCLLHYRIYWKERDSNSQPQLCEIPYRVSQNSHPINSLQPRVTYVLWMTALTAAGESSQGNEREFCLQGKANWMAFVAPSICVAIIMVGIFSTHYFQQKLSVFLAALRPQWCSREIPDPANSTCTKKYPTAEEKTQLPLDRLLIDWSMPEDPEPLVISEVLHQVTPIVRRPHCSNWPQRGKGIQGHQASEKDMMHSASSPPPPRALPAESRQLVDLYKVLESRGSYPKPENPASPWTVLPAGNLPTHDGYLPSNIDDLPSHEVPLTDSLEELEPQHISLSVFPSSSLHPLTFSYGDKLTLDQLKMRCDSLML

murine IL-12 receptor on mouse CD14- PBMC (mouse), sequence (P97378 24-874): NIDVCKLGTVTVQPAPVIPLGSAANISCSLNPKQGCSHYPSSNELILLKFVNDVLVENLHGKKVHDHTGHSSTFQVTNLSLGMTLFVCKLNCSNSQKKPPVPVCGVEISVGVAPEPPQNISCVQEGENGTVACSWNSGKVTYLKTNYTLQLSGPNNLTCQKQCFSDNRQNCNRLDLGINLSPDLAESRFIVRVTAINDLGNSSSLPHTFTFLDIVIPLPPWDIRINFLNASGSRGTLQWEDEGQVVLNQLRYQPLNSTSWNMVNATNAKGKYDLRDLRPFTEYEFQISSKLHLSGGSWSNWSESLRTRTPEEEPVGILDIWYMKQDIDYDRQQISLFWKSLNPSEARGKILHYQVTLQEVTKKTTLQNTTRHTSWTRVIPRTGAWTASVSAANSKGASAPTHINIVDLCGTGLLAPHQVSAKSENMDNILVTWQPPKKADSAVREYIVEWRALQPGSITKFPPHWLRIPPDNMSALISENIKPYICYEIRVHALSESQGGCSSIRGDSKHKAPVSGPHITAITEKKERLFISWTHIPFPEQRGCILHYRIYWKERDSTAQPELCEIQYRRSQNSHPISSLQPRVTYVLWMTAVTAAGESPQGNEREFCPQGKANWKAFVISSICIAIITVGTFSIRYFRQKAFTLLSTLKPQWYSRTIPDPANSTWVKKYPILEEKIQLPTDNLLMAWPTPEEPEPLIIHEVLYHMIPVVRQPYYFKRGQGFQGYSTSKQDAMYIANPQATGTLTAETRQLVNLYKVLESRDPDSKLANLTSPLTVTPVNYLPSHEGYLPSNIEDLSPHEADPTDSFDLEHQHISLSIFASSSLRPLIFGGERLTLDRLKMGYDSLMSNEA

For the substance “recombinant human IL-12 (from UniProt P29459 23-219; P29460 23-328) (ligand)”, the EC50 for stimulating IFN-γ secretion from PBMC in experiment [1] and in experiment [2] was greater than 1000 pM in each case. Moreover, the EC50 for stimulating IFN-γ secretion from CD14- PBMC (ELISA, 16 hours) in experiment [3] was found to be 1.05 pM.
For the substance “recombinant murine IL-12 (from UniProt P43431 23-215; P43432 24-335) (ligand)”, the EC50 for stimulating IFN-γ secretion from CD14- PBMC (ELISA, 16 hours) in experiment [1] is 0.35 pM.
